{
  "source": "paper PMC9935389",
  "about": "“Structural insights into the regulation of Cas7-11 by TPR-CHAT”",
  "target": "DmCas7-11;DmTPR-CHAT full-length (Desulfonema magnum;Desulfonema magnum, UniProt A0A975GRY4;A0A975BRS1 1-1785;1-822, |)",
  "sequence (chain, as listed by the source |, chain 1 of 2)": "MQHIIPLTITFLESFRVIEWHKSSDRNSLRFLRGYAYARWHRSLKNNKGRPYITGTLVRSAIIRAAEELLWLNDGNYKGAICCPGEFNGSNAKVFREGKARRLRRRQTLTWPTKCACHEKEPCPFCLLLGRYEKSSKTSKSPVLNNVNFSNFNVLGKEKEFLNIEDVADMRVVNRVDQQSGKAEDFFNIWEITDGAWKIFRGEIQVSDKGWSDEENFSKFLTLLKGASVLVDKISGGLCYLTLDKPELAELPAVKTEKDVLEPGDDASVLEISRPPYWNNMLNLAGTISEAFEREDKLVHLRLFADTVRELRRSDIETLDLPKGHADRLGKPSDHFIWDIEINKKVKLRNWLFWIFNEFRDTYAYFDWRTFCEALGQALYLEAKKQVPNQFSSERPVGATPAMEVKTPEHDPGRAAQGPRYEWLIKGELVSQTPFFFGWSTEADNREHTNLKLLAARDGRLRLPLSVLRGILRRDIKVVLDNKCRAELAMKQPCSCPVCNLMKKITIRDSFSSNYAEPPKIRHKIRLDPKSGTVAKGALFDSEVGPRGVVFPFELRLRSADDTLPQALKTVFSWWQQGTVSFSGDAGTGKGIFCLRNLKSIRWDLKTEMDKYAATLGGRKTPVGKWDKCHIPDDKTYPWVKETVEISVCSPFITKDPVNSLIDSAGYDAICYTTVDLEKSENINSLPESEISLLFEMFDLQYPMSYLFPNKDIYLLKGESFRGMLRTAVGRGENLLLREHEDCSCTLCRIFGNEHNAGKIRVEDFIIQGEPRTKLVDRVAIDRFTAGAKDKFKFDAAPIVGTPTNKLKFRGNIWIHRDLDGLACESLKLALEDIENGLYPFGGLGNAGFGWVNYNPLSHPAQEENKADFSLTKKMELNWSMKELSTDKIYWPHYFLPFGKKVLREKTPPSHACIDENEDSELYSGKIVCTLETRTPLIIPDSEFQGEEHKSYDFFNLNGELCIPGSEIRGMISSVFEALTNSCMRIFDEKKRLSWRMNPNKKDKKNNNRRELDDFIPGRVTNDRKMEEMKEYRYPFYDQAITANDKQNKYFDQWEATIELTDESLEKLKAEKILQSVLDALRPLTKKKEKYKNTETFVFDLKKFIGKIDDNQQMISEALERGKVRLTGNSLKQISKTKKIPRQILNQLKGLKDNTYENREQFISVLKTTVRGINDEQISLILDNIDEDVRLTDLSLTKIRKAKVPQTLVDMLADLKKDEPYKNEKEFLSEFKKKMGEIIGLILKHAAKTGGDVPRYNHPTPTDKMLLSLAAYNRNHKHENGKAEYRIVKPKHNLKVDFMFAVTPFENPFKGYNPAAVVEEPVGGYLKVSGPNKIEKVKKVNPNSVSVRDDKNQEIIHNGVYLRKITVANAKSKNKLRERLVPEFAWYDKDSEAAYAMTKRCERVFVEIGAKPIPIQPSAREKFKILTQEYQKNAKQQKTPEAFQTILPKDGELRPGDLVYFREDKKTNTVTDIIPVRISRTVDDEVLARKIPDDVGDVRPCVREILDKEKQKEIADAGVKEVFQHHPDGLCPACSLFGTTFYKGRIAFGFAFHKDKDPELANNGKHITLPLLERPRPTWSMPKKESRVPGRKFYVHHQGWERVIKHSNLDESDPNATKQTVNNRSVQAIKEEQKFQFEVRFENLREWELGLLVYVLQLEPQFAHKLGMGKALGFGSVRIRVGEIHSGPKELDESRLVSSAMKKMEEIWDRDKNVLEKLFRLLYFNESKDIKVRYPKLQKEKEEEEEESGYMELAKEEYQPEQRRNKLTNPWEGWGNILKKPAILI",
  "sequence (chain, as listed by the source |, chain 2 of 2)": "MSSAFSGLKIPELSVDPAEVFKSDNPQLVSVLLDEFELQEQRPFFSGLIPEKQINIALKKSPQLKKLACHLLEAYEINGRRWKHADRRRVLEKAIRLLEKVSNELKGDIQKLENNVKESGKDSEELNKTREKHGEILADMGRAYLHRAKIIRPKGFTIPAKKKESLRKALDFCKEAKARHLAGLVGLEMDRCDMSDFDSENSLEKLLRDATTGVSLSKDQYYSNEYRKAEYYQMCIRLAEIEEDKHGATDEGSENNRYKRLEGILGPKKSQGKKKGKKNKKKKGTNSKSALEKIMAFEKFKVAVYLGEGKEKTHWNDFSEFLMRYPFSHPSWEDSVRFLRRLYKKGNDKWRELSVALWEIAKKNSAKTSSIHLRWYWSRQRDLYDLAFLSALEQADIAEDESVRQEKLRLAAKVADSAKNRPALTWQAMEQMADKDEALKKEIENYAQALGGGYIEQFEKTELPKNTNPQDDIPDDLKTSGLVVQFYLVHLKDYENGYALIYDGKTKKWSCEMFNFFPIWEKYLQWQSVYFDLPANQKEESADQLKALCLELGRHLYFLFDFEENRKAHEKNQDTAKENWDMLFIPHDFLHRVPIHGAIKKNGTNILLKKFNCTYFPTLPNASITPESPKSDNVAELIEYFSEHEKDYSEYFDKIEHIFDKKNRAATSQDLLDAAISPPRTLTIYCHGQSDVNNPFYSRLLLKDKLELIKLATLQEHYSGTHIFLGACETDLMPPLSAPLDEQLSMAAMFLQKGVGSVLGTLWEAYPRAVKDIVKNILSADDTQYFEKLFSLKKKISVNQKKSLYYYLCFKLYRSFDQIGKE",
  "test": "cryo-EM; Craspase complex with full TPR-CHAT, 3.2 A; PDB 7ZOL or 7ZOQ (assignment not stated); EMSA: 32.5 mM HEPES-NaOH pH 7.5, 100 mM NaCl, 2.5 mM DTT, 1 U/ul RNase inhibitor, 50 nM RNA, 30 min on ice; no Mg2+ listed",
  "conditions": "protein: recombinant;recombinant; tags: 6xHis (N-terminal);Twin-Strep (N-terminal); copies: 1;1; single strand",
  "data": [
    {"binder": "UUAUGUGAUGGAACCUCUCCGGAUAAUUCUAUCUCUUCUG (ssRNA)", "note": "[crRNA (13+ nt 5' handle, spacer C15-G40 modelled)]", "values": [
      {"measurement": "binding result", "value": "binds"}
    ]}
  ]
}
